The record followed here is US20090270506A1 (published 2009).

The target of data set [1] is human 2,3-oxidosqualene:lanosterol cyclase with C-terminal myc-epitope and 6xHis-tag (human) (UniProt P48449). Kind of data set: self-association; sedimentation equilibrium AUC at 14,000 rpm, 0.6% C8E5, supernatant at equilibrium.
Data set [2] has the same target. Kind of data set: self-association; sedimentation equilibrium AUC at 14,000 rpm, 0.8% β-OG, supernatant at equilibrium.
Data set [3] has the same target. Nature of the data set: self-association; sedimentation equilibrium AUC at 14,000 rpm, 0.06% LDAO, supernatant at equilibrium.
Data set [4] has the same target. Nature of the data set: self-association; sedimentation equilibrium AUC at 14,000 rpm, 0.2% β-OG (below CMC), supernatant at equilibrium.
Data set [5] has the same target. Nature of the data set: self-association; sedimentation equilibrium AUC at 14,000 rpm, 0.2% Triton X-100, supernatant at equilibrium.
The target is the same in data set [6]. Kind of data set: self-association; sedimentation equilibrium AUC at 14,000 rpm, 0.016% DDM, supernatant at equilibrium.
Data set [7] deals with the molecule itself. Kind of data set: sedimentation equilibrium, analytical ultracentrifuge, 0.8% β-OG (self-association).
Experimental: Sedimentation equilibrium (SE) runs were performed at various speeds at 20° C. with sample volume of 100 μl using an Optima XL-I analytical ultracentrifuge (Beckman-Coulter, Palo Alto). The initial protein concentrations were 0.2-0.6 mg/ml in 20 mM Tris-HCl pH 7.5, 5% glycerol, 1 mM TCEP, 0.8% β-OG and 1 mM MgCl₂ (buffer B). The equilibrium absorbance profiles were recorded after 20 hours at 280 nm.
Analysis of the profiles was performed with the Beckman software package and the Schuck program [sequence] […] All solvent densities matched to the detergent densities by addition of sucrose, or not matched, were measured with a PAAR density meter, type DMA4500 (Anton Paar, Graz, Austria). The detergent densities were assessed in the buffer without protein from separate SE runs where the interference detection optics was used for the non absorbing detergents. […] Because of the sucrose addition the hydration state of the protein has to be considered. […] Thus, this value was used. […] The profiles were analysed by a model with various numbers of bound micelles. […] Thus, the analysis was carried out under this assumption providing a vbar value of 0.791 cm³/g. Similarly, the non-density-matched sample with β-OG under the cmc was analysed with vbar=0746 cm³/g.

B1: human 2,3-oxidosqualene:lanosterol cyclase with C-terminal myc-epitope and 6xHis-tag (enzyme)
chain: TEGTCLRRRGGPYKTEPATDLGRWRLNCERGRQTWTYLQDERAGREQTGLEAYALGLDTKNYFKDLPKAHTAFEGALNGMTFYVGLQAEDGHWTGDYGGPLFLLPGLLITCHVARIPLPAGYREEIVRYLRSVQLPDGGWGLHIEDKSTVFGTALNYVSLRILGVGPDDPDLVRARNILHKKGGAVAIPSWGKFWLAVLNVYSWEGLNTLFPEMWLFPDWAPAHPSTLWCHCRQVYLPMSYCYAVRLSAAEDPLVQSLRQELYVEDFASIDWLAQRNNVAPDELYTPHSWLLRVVYALLNLYEHHHSAHLRQRAVQKLYEHIVADDRFTKSISIGPISKTINMLVRWYVDGPASTAFQEHVSRIPDYLWMGLDGMKMQGTNGSQIWDTAFAIQALLEAGGHHRPEFSSCLQKAHEFLRLSQVPDNPPDYQKYYRQMRKGGFSFSTLDCGWIVSDCTAEALKAVLLLQEKCPHVTEHIPRERLCDAVAVLLNMRNPDGGFATYETKRGGHLLELLNPSEVFGDIMIDYTYVECTSAVMQALKYFHKRFPEHRAAEIRETLTQGLEFCRRQQRADGSWEGSWGVCFTYGTWFGLEAFACMGQTYRDGTACAEVSRACDFLLSRQMADGGWGEDFESCEERRYVQSAQSQIHNTCWAMMGLMAVRHPDIEAQERGVRCLLEKQLPNGDWPQENIAGVFNKSCAISYTSYRNIFPIWALGRFSQLYPERALAGHLEQKLISEEDLNSAVDHHHHHH
For B1, the monomer [%] in data set [1] was determined as 100%; in data set [2], 100%; in data set [3] it was 94%; in data set [4] it was 0%; in data set [5], 100%; in data set [6] it was 70%. Moreover, the dimer [%] in data set [3] amounted to 6%; in data set [4], 71%; in data set [6] it was 23%. Moreover, the tetramer [%] amounted to 18% in data set [4] and 7% in data set [6]. The molecule further registered a trimer [%] in data set [4] of 11%.

B2: human 2,3-oxidosqualene:lanosterol cyclase, wild-type without tag (enzyme)
chain: TEGTCLRRRGGPYKTEPATDLGRWRLNCERGRQTWTYLQDERAGREQTGLEAYALGLDTKNYFKDLPKAHTAFEGALNGMTFYVGLQAEDGHWTGDYGGPLFLLPGLLITCHVARIPLPAGYREEIVRYLRSVQLPDGGWGLHIEDKSTVFGTALNYVSLRILGVGPDDPDLVRARNILHKKGGAVAIPSWGKFWLAVLNVYSWEGLNTLFPEMWLFPDWAPAHPSTLWCHCRQVYLPMSYCYAVRLSAAEDPLVQSLRQELYVEDFASIDWLAQRNNVAPDELYTPHSWLLRVVYALLNLYEHHHSAHLRQRAVQKLYEHIVADDRFTKSISIGPISKTINMLVRWYVDGPASTAFQEHVSRIPDYLWMGLDGMKMQGTNGSQIWDTAFAIQALLEAGGHHRPEFSSCLQKAHEFLRLSQVPDNPPDYQKYYRQMRKGGFSFSTLDCGWIVSDCTAEALKAVLLLQEKCPHVTEHIPRERLCDAVAVLLNMRNPDGGFATYETKRGGHLLELLNPSEVFGDIMIDYTYVECTSAVMQALKYFHKRFPEHRAAEIRETLTQGLEFCRRQQRADGSWEGSWGVCFTYGTWFGLEAFACMGQTYRDGTACAEVSRACDFLLSRQMADGGWGEDFESCEERRYVQSAQSQIHNTCWAMMGLMAVRHPDIEAQERGVRCLLEKQLPNGDWPQENIAGVFNKSCAISYTSYRNIFPIWALGRFSQLYPERALAGHP
notes: Expressed in P. pastoris from pPICZB; the whole entry is named; also called hOSC wildtype; hOSC wild-type
For the molecule B2, the binding result in data set [7] is given as “no binding”.
